For one assay, the target named is T1, CD40L (UniProt P29965 113-261, limits assumed).
T1 construct: SPR analyte
T1 sequence (looked up): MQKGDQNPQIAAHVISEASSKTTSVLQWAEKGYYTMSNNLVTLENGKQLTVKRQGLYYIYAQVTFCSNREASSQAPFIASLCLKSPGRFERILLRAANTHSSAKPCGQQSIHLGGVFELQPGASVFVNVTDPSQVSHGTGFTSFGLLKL
Put plainly: SPR (Carterra LSA), antibody amine-coupled, 1:1 model.

In assay [1] the target is T2, CD40L over-expressed on Expi293 cells (UniProt P29965 1-261, limits assumed).
T2 construct: whole, on cells; also called cytokine over-expressing Expi293 cells
T2 sequence (looked up): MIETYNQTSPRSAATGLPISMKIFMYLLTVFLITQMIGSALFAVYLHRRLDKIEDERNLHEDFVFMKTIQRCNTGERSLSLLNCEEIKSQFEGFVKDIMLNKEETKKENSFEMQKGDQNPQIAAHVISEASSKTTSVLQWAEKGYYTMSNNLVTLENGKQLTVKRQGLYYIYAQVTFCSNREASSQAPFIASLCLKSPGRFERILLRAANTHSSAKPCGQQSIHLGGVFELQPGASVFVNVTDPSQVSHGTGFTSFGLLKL
In words: flow cytometry, 100 nM antibody, CD40L-Expi293 vs parent Expi293 cells.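 Note: ratio is the mean fluorescence intensity on CD40L-overexpressing Expi293 cells divided by the mean fluorescence intensity on parental Expi293 cells.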
Procedure: (§1) All incubations and washes were in buffer containing PBS+1% BSA. MFI Ratio is defined by the mean fluorescence intensity (MFI) of the cytokine over-expressing Expi293 cell over the Expi293 parent cell. […] EC50 was calculated in GraphPad Prism.

Assay [2] deals with T3, IL1RL1 over-expressed on Expi293 cells (UniProt Q01638 19-556, limits assumed).
T3 construct: whole, on cells; Target of the flow cytometry MFI ratio (over-expressing cells over parent cells); also called cytokine over-expressing Expi293 cells
T3 sequence (looked up): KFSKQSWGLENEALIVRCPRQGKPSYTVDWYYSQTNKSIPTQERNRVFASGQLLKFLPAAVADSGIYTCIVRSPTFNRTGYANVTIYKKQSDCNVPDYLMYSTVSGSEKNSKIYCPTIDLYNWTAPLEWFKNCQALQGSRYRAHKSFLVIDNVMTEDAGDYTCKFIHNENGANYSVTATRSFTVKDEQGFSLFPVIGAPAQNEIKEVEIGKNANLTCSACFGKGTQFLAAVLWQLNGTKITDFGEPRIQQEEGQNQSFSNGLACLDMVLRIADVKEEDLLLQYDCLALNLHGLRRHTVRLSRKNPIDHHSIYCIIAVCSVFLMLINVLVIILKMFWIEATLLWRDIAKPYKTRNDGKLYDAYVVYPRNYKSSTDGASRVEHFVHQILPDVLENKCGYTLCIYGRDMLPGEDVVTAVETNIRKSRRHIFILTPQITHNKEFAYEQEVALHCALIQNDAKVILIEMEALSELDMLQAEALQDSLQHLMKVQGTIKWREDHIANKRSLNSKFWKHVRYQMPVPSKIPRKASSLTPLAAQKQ
Put plainly: flow cytometry, 100 nM antibody, over-expressing Expi293 / parent cells. (In general: In flow cytometry, cells or beads pass a laser one at a time.)
Procedure: as §1

Here are results for 20 molecules from US20230265179A1 (TWIST BIOSCIENCE, published 2023).

B1: CD40L-46 (VHH)
VHH: EVQLVESGGGLVQPGGSLRLSCAASGFTFSRYEMGWFRQAPGKEREWVASLYLNGDYPYYADSVKGRFTISADNSKNTAYLQMNSLKPEDTAVYYCAIPHGIAGRITWGQGTLVTVSS
One may read the Kd as the concentration at which binding is half-saturated. The low end stands for higher affinity, the high end for lower affinity. The term koff denotes the first-order rate constant of dissociation. Higher therefore signals fast dissociation. The term kon denotes the rate constant with which the complex forms. In the assay with CD40L, B1 displayed a dissociation constant (Kd) of 11.5 nM, an off-rate (koff) of 0.000576 s⁻¹ and a kon of 50200 M⁻¹ s⁻¹. The “100 nM FACS (MFI Ratio)” value in assay [1] came out at 45.7 ratio.

B2: CD40L-34 (VHH)
VHH: EVQLVESGGGLVQPGGSLRLSCAASGRTISNAAMGWFRQAPGKEREFVAAISFRGDSAIYADSVKGRFTISADNSKNTAYLQMNSLKPEDTAVYYCARDAAGDYYYNLDVWGQGTLVTVSS
For the molecule B2, in the assay with CD40L, the Kd was 9.87 nM, the koff was found to be 0.000637 s⁻¹ and the on-rate constant (kon) is 64500 M⁻¹ s⁻¹. In addition, the “100 nM FACS (MFI Ratio)” value in assay [1] came out at 76.7 ratio.

B3: IL1RL1-28 (Fc fusion, not shown: a dimerising Fc or GST)
VHH: EVQLVESGGGLVQPGGSLRLSCAASGRTISRYTMGWFRQAPGKEREFVAGIWSGGYTHYADSVKGRFTISADNSKNTAYLQMNSLKPEDTAVYYCAAVSSNTEIFDWGQGTLVTVSS
notes: VHH-Fc on IgG2 Fc
Take B3: the “100 nM FACS (MFI Ratio)” value in assay [2] came out at 473 MFI ratio.

B4: IL1RL1-35 (Fc fusion, not shown: a dimerising Fc or GST)
VHH: EVQLVESGGGLVQPGGSLRLSCAASGLTISSLTMGWFRQAPGKEREFVAGIWSGGYTHYADSVKGRFTISADNSKNTAYLQMNSLKPEDTAVYYCAAVSSNTEIFDWGQGTLVTVSS
notes: VHH-Fc on IgG2 Fc
As to B4, the “100 nM FACS (MFI Ratio)” value in assay [2] worked out at 514 MFI ratio.

B5: IL1RL1-85 (Fc fusion, not shown: a dimerising Fc or GST)
VHH: EVQLVESGGGLVQPGGSLRLSCAASGRTFSTAGMGWFRQAPGKEREWVASIITSGSTITPYADSVKGRFTISADNSKNTAYLQMNSLKPEDTAVYYCAVVDLLRGKLWGQGTLVTVSS
notes: VHH-Fc on IgG2 Fc
On to B5, for which, in assay [2], the “100 nM FACS (MFI Ratio)” value turned out to be 4.47 MFI ratio.

B6: CD40L-41 (VHH)
VHH: EVQLVESGGGLVQPGGSLRLSCAASGSTFSKHHAMGWFRQAPGKERELVASISSDNYTVYADSVKGRFTISADNSKNTAYLQMNSLKPEDTAVYYCAREAANYREPPLWGQGTLVTVSS
For B6, in the assay with CD40L, the Kd was 8.47 nM, the off-rate constant (koff) stood at 0.000685 s⁻¹ and the kon worked out at 80800 M⁻¹ s⁻¹. Also, the “100 nM FACS (MFI Ratio)” value in assay [1] came to 15.5 ratio.

B7: CD40L-47 (VHH)
VHH: EVQLVESGGGLVQPGGSLRLSCAASGRTLVNYDMGWFRQAPGKEREFVAAISMSGEDTIYADSVKGRFTISADNSKNTAYLQMNSLKPEDTAVYYCTTGGGTRDYWGQGTLVTVSS
In the assay with CD40L, B7 gave a Kd of 2.38 nM, a dissociation rate constant (koff) of 0.000536 s⁻¹ and an association rate constant (kon) of 225000 M⁻¹ s⁻¹. Further, in assay [1], the “100 nM FACS (MFI Ratio)” value is 41.8 ratio.

B8: CD40L-48 (VHH)
VHH: EVQLVESGGGLVQPGGSLRLSCAASGFTFSRYEMGWFRQAPGKEREFVAAVTEGGTTSYADSVKGRFTISADNSKNTAYLQMNSLKPEDTAVYYCAAESLGRWWGQGTLVTVSS
Regarding B8, in the assay with CD40L, the equilibrium dissociation constant (Kd) was found to be 8.48 nM, the off-rate (koff) was found to be 0.000998 s⁻¹ and the on-rate (kon) was found to be 118000 M⁻¹ s⁻¹. For the same molecule, the “100 nM FACS (MFI Ratio)” value in assay [1] came to 68.4 ratio.

B9: IL1RL1-29 (Fc fusion, not shown: a dimerising Fc or GST)
VHH: EVQLVESGGGLVQPGGSLRLSCAASGGFSVYAMGWFRQAPGKEREWVSSTSTGGGGTYYADSVKGRFTISADNSKNTAYLQMNSLKPEDTAVYYCAANVGVTGSYEWGQGTLVTVSS
notes: VHH-Fc on IgG2 Fc
Take B9: the “100 nM FACS (MFI Ratio)” value in assay [2] came to 431 MFI ratio.

B10: CD40L-55 (VHH)
VHH: EVQLVESGGGLVQPGGSLRLSCAASGLPFSTLHMGWFRQAPGKEREFVAAISRSGNLKAYADSVKGRFTISADNSKNTAYLQMNSLKPEDTAVYYCAADDYLGGDNWYLGPYDWGQGTLVTVSS
In the assay with CD40L, B10 returned a Kd of 10 nM, an off-rate constant (koff) of 0.0001 s⁻¹ and a kon of 10000 M⁻¹ s⁻¹. The “100 nM FACS (MFI Ratio)” value in assay [1] came out at 3.2 ratio.

B11: CD40L-35 (VHH)
VHH: EVQLVESGGGLVQPGGSLRLSCAASGLTFSSYWMGWFRQAPGKERELVASITDGGSTNYADSVKGRFTISADNSKNTAYLQMNSLKPEDTAVYYCAVQVNGIWAWGQGTLVTVSS
Regarding B11, in the assay with CD40L, the Kd is no more than 0.0842 nM, the koff is no more than 1e-05 s⁻¹ and the kon was 119000 M⁻¹ s⁻¹. The “100 nM FACS (MFI Ratio)” value in assay [1] is 29.5 ratio.

B12: IL1RL1-31 (Fc fusion, not shown: a dimerising Fc or GST)
VHH: EVQLVESGGGLVQPGGSLRLSCAASGFTFRNFGMGWFRQAPGKEREFVALINVGGVAKYADSVKGRFTISADNSKNTAYLQMNSLKPEDTAVYYCTTDARHWGQGTLVTVSS
notes: VHH-Fc on IgG2 Fc
B12: in assay [2], the “100 nM FACS (MFI Ratio)” value was found to be 311 MFI ratio.

B13: IL1RL1-34 (Fc fusion, not shown: a dimerising Fc or GST)
VHH: EVQLVESGGGLVQPGGSLRLSCAASGSTFSNAVMGWFRQAPGKEREFVAVIIDSRTTKYADSVKGRFTISADNSKNTAYLQMNSLKPEDTAVYYCAAVGGATTVTASEWDWGQGTLVTVSS
notes: VHH-Fc on IgG2 Fc
Take B13: in assay [2], the “100 nM FACS (MFI Ratio)” value came out at 476 MFI ratio.

B14: IL1RL1-55 (Fc fusion, not shown: a dimerising Fc or GST)
VHH: EVQLVESGGGLVQPGGSLRLSCAASGEIASIIAMGWFRQAPGKERELVAVIIGGGSTNYADSVKGRFTISADNSKNTAYLQMNSLKPEDTAVYYCAAVGGATTVTASEWDWGQGTLVTVSS
notes: VHH-Fc on IgG2 Fc
Regarding B14, the “100 nM FACS (MFI Ratio)” value in assay [2] was determined as 1.6 MFI ratio.

B15: IL1RL1-80 (Fc fusion, not shown: a dimerising Fc or GST)
VHH: EVQLVESGGGLVQPGGSLRLSCAASGRTFSPIAMGWFRQAPGKEREMVAVIIDSRTTKYADSVKGRFTISADNSKNTAYLQMNSLKPEDTAVYYCAAVGGATTVTASEWDWGQGTLVTVSS
notes: VHH-Fc on IgG2 Fc
As to B15, in assay [2], the “100 nM FACS (MFI Ratio)” value worked out at 1.49 MFI ratio.

B16: IL1RL1-38 (Fc fusion, not shown: a dimerising Fc or GST)
VHH: EVQLVESGGGLVQPGGSLRLSCAASGFTFSNHIMGWFRQAPGKERELVAVIIDSRTTKYADSVKGRFTISADNSKNTAYLQMNSLKPEDTAVYYCAAVGGATTVTASEWDWGQGTLVTVSS
notes: VHH-Fc on IgG2 Fc
With B16, the “100 nM FACS (MFI Ratio)” value in assay [2] stood at 1.37 MFI ratio.

B17: CD40L-38 (VHH)
VHH: EVQLVESGGGLVQPGGSLRLSCAASGVTFSSYDMGWFRQAPGKEREFVAAINWSGGSRSYADSVKGRFTISADNSKNTAYLQMNSLKPEDTAVYYCAIPRFRPYEYDWGQGTLVTVSS
In the assay with CD40L, B17 came in with a Kd of 8.61 nM, an off-rate constant (koff) of 0.00052 s⁻¹ and a kon of 60300 M⁻¹ s⁻¹. The “100 nM FACS (MFI Ratio)” value in assay [1] came to 49 ratio.

B18: CD40L-51 (VHH)
VHH: EVQLVESGGGLVQPGGSLRLSCAASGYFASWYYMGWFRQAPGKEREEVATFYTGDGRTYYADSVKGRFTISADNSKNTAYLQMNSLKPEDTAVYYCAAWLNGGNRWGQGTLVTVSS
As to B18, in the assay with CD40L, the dissociation constant (Kd) is no more than 0.174 nM, the koff is no more than 1e-05 s⁻¹ and the on-rate constant (kon) was determined as 57600 M⁻¹ s⁻¹. Besides, the “100 nM FACS (MFI Ratio)” value in assay [1] came to 76.6 ratio.

B19: CD40L-39 (VHH)
VHH: EVQLVESGGGLVQPGGSLRLSCAASGGTLDDYVMGWFRQAPGKEREFVASIGRSGNSAVNTDYADSVKGRFTISADNSKNTAYLQMNSLKPEDTAVYYCAREPYSGTYYPRYWGQGTLVTVSS
With B19, in the assay with CD40L, the Kd amounted to 0.194 nM, the koff was found to be 6.25e-05 s⁻¹ and the association rate constant (kon) was found to be 322000 M⁻¹ s⁻¹. Moreover, the “100 nM FACS (MFI Ratio)” value in assay [1] was determined as 114 ratio.

B20: IL1RL1-30 (Fc fusion, not shown: a dimerising Fc or GST)
VHH: EVQLVESGGGLVQPGGSLRLSCAASGDISSIVAMGWFRQAPGKEREWVASISTSGSTITPYADSVKGRFTISADNSKNTAYLQMNSLKPEDTAVYYCAAGAVRYGVSTSPMNYNWGQGTLVTVSS
notes: VHH-Fc on IgG2 Fc
Regarding B20, the “100 nM FACS (MFI Ratio)” value in assay [2] worked out at 515 MFI ratio.
